Test results taken from article PMC9352680, “A comprehensive thermodynamic model for RNA binding by the Saccharomyces cerevisiae Pumilio protein PUF4”.

T1: PUF4 RNA-binding domain (Saccharomyces cerevisiae, UniProt P25339 537-888)
T1 sequence: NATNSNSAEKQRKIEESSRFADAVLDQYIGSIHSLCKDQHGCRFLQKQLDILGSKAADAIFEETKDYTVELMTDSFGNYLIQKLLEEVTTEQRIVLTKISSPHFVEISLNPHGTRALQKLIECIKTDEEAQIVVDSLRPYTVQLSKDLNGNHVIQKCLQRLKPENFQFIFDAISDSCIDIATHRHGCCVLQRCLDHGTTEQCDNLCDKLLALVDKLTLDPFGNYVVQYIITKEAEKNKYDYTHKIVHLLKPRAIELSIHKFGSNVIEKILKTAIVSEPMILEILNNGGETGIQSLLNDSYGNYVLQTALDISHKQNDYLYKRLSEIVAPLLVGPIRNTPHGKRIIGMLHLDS


biological target: T1, PUF4 RNA-binding domain; experiment: Mg; RNA-MaP; 20 mM Na-HEPES pH 7.4, 30 mM KOAc, 0.75 mM MgCl2, 0.1% Tween-20, 5% glycerol, 0.1 mg/mL BSA, 2 mM DTT; 25 C; 0.0125-409.6 nM protein; settings: tags: N-His6-TEV cleaved; C-SNAP kept, Cy3B-labelled; label: tethered on chip by stalled RNA polymerase

Row | Binder | Kd
1 | Id_iii_S4_P3E.5_K3.1_C3.3_[C-2G]_H3.1_A3.1_F3.1_T3.2 (ssRNA) RNA: UUUGACAACUGAUCGUUCUUUCUUGUUGUAUAUAUAUUCUUUCUCGAUCAGUUGUCUUU | 1.77 nM
2 | Id_iii_S4_P3E.7_K3.3_C3.3_[T-1A]_H3.3_A3.1_F3.1_T3.2 (ssRNA) RNA: UUUGACAACUGAUCGUUCUUUCUUCAACACUAUAUAUUCUUUCUCGAUCAGUUGUCUUU | 137 nM
3 | Id_iii_S4_P3E.9_K3.5_C3.3_H3.1_A3.2_F3.2_T3.2_[A10C] (ssRNA) RNA: UUUGACAACUGAUCGUUCUUUCUUCUUGUAAAAAUCUUCUUUCUCGAUCAGUUGUCUUU | 308 nM
4 | Id_iii_S4_P3E.6_K3.2_C3.3_H3.2_A3.1_F3.1_T3.2_[A10C] (ssRNA) RNA: UUUGACAACUGAUCGUUCUUUCUUCUUAUAUAUAUCUUCUUUCUCGAUCAGUUGUCUUU | 131 nM
5 | Id_iii_S4_P3E.8_K3.4_C3.3_[T-1C]_H3.1_A3.2_F3.1_T3.2 (ssRNA) RNA: UUUGACAACUGAUCGUUCUUUCUUCCUGUAAAUAUAUUCUUUCUCGAUCAGUUGUCUUU | 2.97 nM
6 | Id_iii_S4_P3E.9_K3.5_C3.3_[C-2T]_H3.1_A3.2_F3.2_T3.2 (ssRNA) RNA: UUUGACAACUGAUCGUUCUUUCUUUUUGUAAAAAUAUUCUUUCUCGAUCAGUUGUCUUU | 34.5 nM
7 | Id_iii_S4_P3E.6_K3.2_C3.3_[T-1C]_H3.2_A3.1_F3.1_T3.2 (ssRNA) RNA: UUUGACAACUGAUCGUUCUUUCUUCCUAUAUAUAUAUUCUUUCUCGAUCAGUUGUCUUU | 33.1 nM
8 | Id_iii_S4_P3E.5_K3.1_C3.3_[T-1A]_H3.1_A3.1_F3.1_T3.2 (ssRNA) RNA: UUUGACAACUGAUCGUUCUUUCUUCAUGUAUAUAUAUUCUUUCUCGAUCAGUUGUCUUU | 1.71 nM
9 | Id_iii_S4_P3E.8_K3.4_C3.3_H3.1_A3.2_F3.1_T3.2_[A10G] (ssRNA) RNA: UUUGACAACUGAUCGUUCUUUCUUCUUGUAAAUAUGUUCUUUCUCGAUCAGUUGUCUUU | 14.2 nM
10 | Id_iii_S4_P3E.7_K3.3_C3.3_H3.3_A3.1_F3.1_T3.2_[A10C] (ssRNA) RNA: UUUGACAACUGAUCGUUCUUUCUUCUACACUAUAUCUUCUUUCUCGAUCAGUUGUCUUU | 611 nM
11 | Id_iii_S4_P3E.7_K3.3_C3.3_[T-3A]_H3.3_A3.1_F3.1_T3.2 (ssRNA) RNA: UUUGACAACUGAUCGUUCUUUCUACUACACUAUAUAUUCUUUCUCGAUCAGUUGUCUUU | 364 nM
12 | Id_iii_S4_P3E.7_K3.3_C3.3_[C-2G]_H3.3_A3.1_F3.1_T3.2 (ssRNA) RNA: UUUGACAACUGAUCGUUCUUUCUUGUACACUAUAUAUUCUUUCUCGAUCAGUUGUCUUU | 0.724 nM
13 | Id_iii_S4_P3E.9_K3.5_C3.3_[T-3G]_H3.1_A3.2_F3.2_T3.2 (ssRNA) RNA: UUUGACAACUGAUCGUUCUUUCUGCUUGUAAAAAUAUUCUUUCUCGAUCAGUUGUCUUU | 25.8 nM
14 | Id_iii_S4_P3E.9_K3.5_C3.3_[T-1A]_H3.1_A3.2_F3.2_T3.2 (ssRNA) RNA: UUUGACAACUGAUCGUUCUUUCUUCAUGUAAAAAUAUUCUUUCUCGAUCAGUUGUCUUU | 48.5 nM
15 | Id_iii_S4_P3E.6_K3.2_C3.3_[C-2G]_H3.2_A3.1_F3.1_T3.2 (ssRNA) RNA: UUUGACAACUGAUCGUUCUUUCUUGUUAUAUAUAUAUUCUUUCUCGAUCAGUUGUCUUU | 20.4 nM
16 | UCUCUUUGUAGUUUUAUCUCUU (ssRNA) [Ib_S1_P5E.1_K5.1_C5.1_H5.1_A5.1_[T5G]_[A7T]_F5.1_T5.1] | 27.2 nM
17 | UCUCUUUGUAGUCUUAUCUCUU (ssRNA) [Ib_S1_P5E.1_K5.1_C5.1_H5.1_A5.1_[T5G]_[A7C]_F5.1_T5.1] | 93.7 nM
18 | Id_iii_S4_P4E.5_K4.1_C4.3_[C-2A]_H4.1_A4.1_F4.1_T4.2 (ssRNA) RNA: UUUGACAACUGAUCGUUCUUUCUUAUUGUAUAUUAGUUUCUUUCUCGAUCAGUUGUCUUU | 0.43 nM
19 | Id_iii_S4_P4E.6_K4.2_C4.3_[T-1A]_H4.2_A4.1_F4.1_T4.2 (ssRNA) RNA: UUUGACAACUGAUCGUUCUUUCUUCAUAUAUAUUAGUUUCUUUCUCGAUCAGUUGUCUUU | 7.5 nM
20 | Id_iii_S4_P4E.7_K4.3_C4.3_[C-2G]_H4.3_A4.1_F4.1_T4.2 (ssRNA) RNA: UUUGACAACUGAUCGUUCUUUCUUGUACACUAUUAGUUUCUUUCUCGAUCAGUUGUCUUU | 1.75 nM
